Assay results from patent publication US20230073947A1, “A METHOD FOR PREPARING BOVINE MYOGLOBIN USING ESCHERICHIA COLI” (iNtRON Biotechnology, Inc., priority 2020, published 2023).

Tested on: iron-deficiency-anemia-induced animals
Type: in vivo, Sprague-Dawley rats
Procedure: The composition containing bovine myoglobin prepared according to the present invention was administered to iron-deficiency-anemia-induced animals, whereby the effectiveness of the composition containing bovine myoglobin on alleviating anemia was evaluated. Specifically, after 2 weeks acclimation period, thirty 9-week old Sprague-Dawley rats (female) were divided into 3 groups of 10 rats per group, among which one group was fed with normal feed in an amount of 10% of body weight daily for one month (Group 1; control), and the remaining two groups were fed with iron-deficient feed in an amount of 10% of body weight daily for 6 weeks to induce iron-deficiency anemia (Group 2 and Group 3). After 6 weeks of feeding, it was confirmed that iron-deficiency anemia was induced in the individual rat belonging to Group 2 and Group 3. Then, one of the anemia-induced groups was orally administered once a day with saline alone (Group 2), and the other anemia-induced group was orally administered once a day with solution containing bovine myoglobin (0.1 mg Fe/500 μ1 solution, Group 3). The administration continued for 5 weeks. During 5 weeks of administration to Group 2 and Group 3, Group 1 was continuously fed with normal feed, and Group 2 and Group 3 were fed with iron-deficient feed. […] After 5 weeks of administration, blood was collected, and whether anemia was alleviated was evaluated.

[1] = female Sprague-Dawley rats, iron-deficient feed, oral once a day 0.1 mg Fe/500 μl solution for 5 weeks

B1: bovine myoglobin (protein)
chain: MGLSDGEWQLVLNAWGKVEADVAGHGQEVLIRLFTGHPETLEKFDKFKHLKTEAEMKASEDLKKHGNTVLTALGGILKKKGHHEAEVKHLAESHANKHKIPVKYLEFISDAIIHVLHAKHPSDFGADAQAAMSKALELFRNDMAAQYKVLGFHG
modifications: heme cofactor; Bovine myoglobin
- Effectiveness at alleviating iron-deficiency anemia (conclusion from blood analysis after 5 weeks of administration): effective at alleviating iron-deficiency anemia
- Blood test Hematocrit [1]: 35.8 ± 1.9%
- Blood test Hemoglobin content [1]: 14.0 ± 0.7 g/dL
- Weight of rats on 5 weeks after administration [1]: 318.9 ± 1.1 g
- Occurrence of abnormal symptoms during the administration period (rat, in vivo, po): no abnormal symptoms
